{
  "source": "the array DNA melting data of Ke et al.",
  "data": [
    {"assay": "melting temperature; melt of duplexes", "details": "sodium 0.0675 M; strand 1 µM", "units": {"Tm": "°C"}, "values": [
      {"substance": "CGACGTGCTCGATGTGCTG+CAGCACATACAGCACGTCG (((((((((..((((((((+))))))))..)))))))))", "Tm": 51.8},
      {"substance": "CGACGTGCAGGATGTGCTG+CAGCACATGCTGCACGTCG ((((((((((.((((((((+)))))))).))))))))))", "Tm": 59.6},
      {"substance": "CGACGTGCTTTATGTGCTG+CAGCACATGCTGCACGTCG ((((((((...((((((((+))))))))...))))))))", "Tm": 46.2},
      {"substance": "CGACGTGCCCAATGTGCTG+CAGCACATCGCGCACGTCG ((((((((.(.((((((((+)))))))).).))))))))", "Tm": 48.7},
      {"substance": "CGACGTGCGAGATGTGCTG+CAGCACATACAGCACGTCG ((((((((...((((((((+))))))))...))))))))", "Tm": 52.6},
      {"substance": "CGACGTGCGACATGTGCTG+CAGCACATCACGCACGTCG (((((((((..((((((((+))))))))..)))))))))", "Tm": 52.7},
      {"substance": "CGACGTGCGTCATGTGCTG+CAGCACATGATGCACGTCG ((((((((.((((((((((+)))))))))).))))))))", "Tm": 61.1},
      {"substance": "CGACGTGCCGTATGTGCTG+CAGCACATTATGCACGTCG ((((((((...((((((((+))))))))...))))))))", "Tm": 48.6},
      {"substance": "CGACGTGCCCGATGTGCTG+CAGCACATTAAGCACGTCG ((((((((...((((((((+))))))))...))))))))", "Tm": 49.5},
      {"substance": "CGACGTGCACCATGTGCTG+CAGCACATGATGCACGTCG (((((((((.(((((((((+))))))))).)))))))))", "Tm": 56.5},
      {"substance": "CGACGTGCTCCATGTGCTG+CAGCACATTGAGCACGTCG ((((((((((.((((((((+)))))))).))))))))))", "Tm": 56.5},
      {"substance": "CGACGTGCACCATGTGCTG+CAGCACATGCTGCACGTCG (((((((((.(((((((((+))))))))).)))))))))", "Tm": 51.6},
      {"substance": "CGACGTGCTGAATGTGCTG+CAGCACATGCAGCACGTCG ((((((((((.((((((((+)))))))).))))))))))", "Tm": 59.7},
      {"substance": "CGACGTGCCCAATGTGCTG+CAGCACATAGTGCACGTCG ((((((((.(.((((((((+)))))))).).))))))))", "Tm": 46.2},
      {"substance": "CGACGTGCTGAATGTGCTG+CAGCACATGCTGCACGTCG ((((((((.(.((((((((+)))))))).).))))))))", "Tm": 53.5},
      {"substance": "CGACGTGCTTAATGTGCTG+CAGCACATTATGCACGTCG ((((((((.((((((((((+)))))))))).))))))))", "Tm": 56.5},
      {"substance": "CGACGTGCAATATGTGCTG+CAGCACATGCGGCACGTCG ((((((((...((((((((+))))))))...))))))))", "Tm": 49.7},
      {"substance": "CGACGTGCTGCATGTGCTG+CAGCACATGACGCACGTCG ((((((((..(((((((((+)))))))))..))))))))", "Tm": 52.9},
      {"substance": "CGACGTGCCAAATGTGCTG+CAGCACATGAAGCACGTCG ((((((((...((((((((+))))))))...))))))))", "Tm": 51.2},
      {"substance": "CGACGTGCCGTATGTGCTG+CAGCACATCCTGCACGTCG ((((((((.(.((((((((+)))))))).).))))))))", "Tm": 49.7},
      {"substance": "CGACGTGCGTTATGTGCTG+CAGCACATCCTGCACGTCG ((((((((...((((((((+))))))))...))))))))", "Tm": 49.2},
      {"substance": "CGACGTGCAGCATGTGCTG+CAGCACATCGCGCACGTCG ((((((((...((((((((+))))))))...))))))))", "Tm": 51.6},
      {"substance": "CGACGTGCAGAATGTGCTG+CAGCACATTGTGCACGTCG (((((((((.(((((((((+))))))))).)))))))))", "Tm": 55.8},
      {"substance": "CGACGTGCGAGATGTGCTG+CAGCACATATAGCACGTCG ((((((((.(.((((((((+)))))))).).))))))))", "Tm": 54.6},
      {"substance": "CGACGTGCTTCATGTGCTG+CAGCACATCCGGCACGTCG ((((((((...((((((((+))))))))...))))))))", "Tm": 47.8},
      {"substance": "CGACGTGCAATATGTGCTG+CAGCACATCCAGCACGTCG ((((((((...((((((((+))))))))...))))))))", "Tm": 48.1},
      {"substance": "CGACGTGCTTTATGTGCTG+CAGCACATGTCGCACGTCG ((((((((...((((((((+))))))))...))))))))", "Tm": 47.8},
      {"substance": "CGACGTGCTCGATGTGCTG+CAGCACATAAAGCACGTCG (((((((((..((((((((+))))))))..)))))))))", "Tm": 52.7},
      {"substance": "CGACGTGCGGGATGTGCTG+CAGCACATAGGGCACGTCG ((((((((...((((((((+))))))))...))))))))", "Tm": 50.1},
      {"substance": "CGACGTGCCTTATGTGCTG+CAGCACATGTGGCACGTCG (((((((((..((((((((+))))))))..)))))))))", "Tm": 54.4},
      {"substance": "CGACGTGCAGGATGTGCTG+CAGCACATTACGCACGTCG ((((((((...((((((((+))))))))...))))))))", "Tm": 50.7},
      {"substance": "CGACGTGCGACATGTGCTG+CAGCACATCCCGCACGTCG (((((((((..((((((((+))))))))..)))))))))", "Tm": 52.3},
      {"substance": "CGACGTGCATGATGTGCTG+CAGCACATTTCGCACGTCG ((((((((...((((((((+))))))))...))))))))", "Tm": 48.7},
      {"substance": "CGACGTGCACGATGTGCTG+CAGCACATACCGCACGTCG ((((((((...((((((((+))))))))...))))))))", "Tm": 43.6},
      {"substance": "CGACGTGCAGTATGTGCTG+CAGCACATCTCGCACGTCG ((((((((...((((((((+))))))))...))))))))", "Tm": 50.1},
      {"substance": "CGACGTGCCCTATGTGCTG+CAGCACATCGCGCACGTCG ((((((((.(.((((((((+)))))))).).))))))))", "Tm": 48.1}
    ]}
  ]
}
